Assay results: the supplement of paper PMC10126150
± gives the standard deviation of the averaged measurements.

What follows are sequences tested on ATP (assay: switch fluorescence ratio, 500 uM ATP over buffer (Cy3 cluster intensity, sum of 5 cycles each) (fold (ratio)); higher = stronger signal-on switching upon ATP binding; sequences stand for … in TCGTCGGCAGCGTCAGATGTGTATAAGAGACAGTTTTTTTTTTTTTTTTTTTTTTTTT…TC). Details: aptamer strand: ATP DNA aptamer (quencher-CACCTGGGGGAGTATTGCGGAGGAAGG + anchor), 100 nM annealed; ATP concentration: 500 uM.
In short: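 The fluorescence ratio divides summed target-cycle Cy3 intensity by summed buffer-cycle Cy3 intensity for each cluster and is averaged per switch-domain sequence. Cy3-labelled switching-strand clusters on a modified Illumina MiSeq flow-cell were annealed to 100 nM quencher-labelled ATP aptamer, then imaged in selection buffer and again after 15 min with 500 uM ATP at 22 °C. Five such cycles were run, with NaOH stripping and re-annealing between them, and clusters outside 100-1000 RFU were excluded.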
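Note: ATP exposure 15 min at 22 °C before imaging.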

| Sequence | switch fluorescence ratio |
| --- | --- |
| GGAACTTAAG | 0.9794 ± 0.0043 |
| GGAACTTGGT | 0.928 ± 0.087 |
| GGAAGAGGAA | 0.988 ± 0.025 |
| GGAAGAGGTG | 1.09 ± 0.022 |
| GGAAGATTTG | 1.06 ± 0.055 |
| GGAAGCGAAC | 1.47 ± 0.067 |
| GGAAGCGGGT | 0.994 ± 0.042 |
| GGAAGGAGTG | 0.987 ± 0.036 |
| GGAAGGGCTT | 1 ± 0.034 |
| GGAAGGGGAA | 1.01 ± 0.028 |
| GGAAGGGGAT | 0.9986 ± 0.0061 |
| GGAAGGTA | 0.997 ± 0.03 |
| GGAAGTAGGA | 0.98839 ± 0.00067 |
| GGAAGTAGGT | 0.988 ± 0.02 |
| GGAAGTCTCA | 0.975 ± 0.012 |
| GGAAGTGGTA | 0.976 ± 0.021 |
| GGAAGTTGTA | 1.07 ± 0.13 |
| GGAATAGGGA | 0.982 ± 0.052 |
| GGAATAGTGC | 1.01 ± 0.052 |
| GGAATATAAC | 1 ± 0.045 |
| GGAATATGC | 1.13 ± 0.1 |
| GGAATCAAAC | 0.996 ± 0.0094 |
| GGAATCTGCC | 1.14 ± 0.024 |
| GGAATGACGG | 1.012 ± 0.0024 |
| GGAATGGGTT | 1.01 ± 0.023 |
| GGAATGTGCA | 0.987 ± 0.023 |

| Sequence | switch fluorescence ratio |
| --- | --- |
| GGAATGTGGT | 1.027 ± 0.002 |
| GGAATTAGTG | 0.995 ± 0.025 |
| GGAATTGAGT | 1.02 ± 0.021 |
| GGAATTGGGG | 1.01 ± 0.027 |
| GGACAAAAAC | 1.02 ± 0.013 |
| GGACAAAAGA | 0.984 ± 0.011 |
| GGACACTGGT | 1.06 ± 0.041 |
| GGACAGGCGC | 1.006 ± 0.0024 |
| GGACATGGCG | 0.943 ± 0.019 |
| GGACATTCGC | 1.04 ± 0.013 |
| GGACCGGACG | 1.106 ± 0.0093 |
| GGACCTGCTG | 0.969 ± 0.0033 |
| GGACGAATGG | 1.02 ± 0.013 |
| GGACGATGGG | 0.995 ± 0.045 |
| GGACGGGGAT | 1 ± 0.015 |
| GGACGGGTGT | 0.996 ± 0.011 |
| GGACGGGTTT | 1 ± 0.031 |
| GGACGTAGTA | 1.006 ± 0.0071 |
| GGACGTATTA | 1.03 ± 0.051 |
| GGACGTGGGG | 0.953 ± 0.069 |
| GGACGTGGTA | 1.03 ± 0.028 |
| GGACTAGATG | 0.978 ± 0.013 |
| GGACTATGCG | 0.985 ± 0.032 |
| GGACTCCTAG | 0.995 ± 0.028 |
| GGACTGCGGT | 0.979 ± 0.022 |
| GGACTGCTGG | 1.03 ± 0.033 |

| Sequence | switch fluorescence ratio |
| --- | --- |
| GGACTTGTTT | 0.984 ± 0.022 |
| GGACTTTGGC | 0.983 ± 0.042 |
| GGACTTTTTG | 0.953 ± 0.045 |
| GGAGAACGAT | 1.03 ± 0.027 |
| GGAGAAGTCC | 1.03 ± 0.093 |
| GGAGAAGTGG | 0.976 ± 0.034 |
| GGAGAATGCC | 1.04 ± 0.053 |
| GGAGAATGCG | 1.02 ± 0.013 |
| GGAGAATTTT | 1.04 ± 0.049 |
| GGAGACTTGA | 0.986 ± 0.024 |
| GGAGAGGAAT | 1.01 ± 0.044 |
| GGAGAGGGAG | 0.9883 ± 0.0015 |
| GGAGAGGGTA | 1.01 ± 0.035 |
| GGAGATATCA | 1.035 ± 0.0074 |
| GGAGATGCAG | 0.969 ± 0.046 |
| GGAGATGCTA | 0.9616 ± 0.0059 |
| GGAGATGTCA | 1.013 ± 0.0081 |
| GGAGATTGAT | 1 ± 0.021 |
| GGAGATTTTA | 1.04 ± 0.068 |
| GGAGCGAAGT | 1.16 ± 0.26 |
| GGAGCGAGAG | 3.37 ± 0.28 |
| GGAGCGATGG | 3.31 ± 1.2 |
| GGAGCTGGGG | 1.04 ± 0.065 |
| GGAGCTTGCA | 1.02 ± 0.023 |
| GGAGGCAGTT | 0.9738 ± 0.006 |
| GGAGGCATAT | 1.13 ± 0.039 |

| Sequence | switch fluorescence ratio |
| --- | --- |
| GGAGGCGGAG | 1.002 ± 0.0077 |
| GGAGGCTGGT | 1.018 ± 0.01 |
| GGAGGGAGTT | 1.03 ± 0.049 |
| GGAGGGCAAC | 1.01 ± 0.028 |
| GGAGGGCGTC | 0.952 ± 0.0048 |
| GGAGGGGAGC | 0.974 ± 0.056 |
| GGAGGGGGTA | 1.01 ± 0.016 |
| GGAGGGGGTG | 0.989 ± 0.044 |
| GGAGGGGTCA | 0.9744 ± 0.0097 |
| GGAGGGGTCG | 1.02 ± 0.033 |
| GGAGGGTGCG | 1.011 ± 0.0064 |
| GGAGGGTTGG | 0.998 ± 0.059 |
| GGAGGGTTTG | 0.992 ± 0.034 |
| GGAGGTACAC | 1.03 ± 0.037 |
| GGAGTAAATG | 1.01 ± 0.015 |
| GGAGTAAGAG | 1.11 ± 0.21 |
| GGAGTACCGG | 1.01 ± 0.049 |
| GGAGTCATGA | 0.982 ± 0.04 |
| GGAGTCGTCC | 1.01 ± 0.024 |
| GGAGTCTAGG | 0.994 ± 0.031 |
| GGAGTGACGG | 0.9979 ± 0.0024 |
| GGAGTGAGGG | 0.985 ± 0.05 |
| GGAGTGTGGG | 0.986 ± 0.019 |
| GGAGTGTGTG | 0.96 ± 0.044 |
| GGAGTTAGGG | 0.977 ± 0.011 |
| GGAGTTGTTG | 0.99 ± 0.009 |

| Sequence | switch fluorescence ratio |
| --- | --- |
| GGAGTTTCGT | 0.988 ± 0.023 |
| GGATAATAGT | 0.9916 ± 0.0082 |
| GGATAATGGC | 0.94 ± 0.059 |
| GGATACGTTT | 0.994 ± 0.012 |
| GGATAGAGTG | 0.971 ± 0.052 |
| GGATAGGGGA | 1.01 ± 0.017 |
| GGATAGGGGT | 1.05 ± 0.062 |
| GGATAGGGTG | 1.06 ± 0.076 |
| GGATATAAGT | 1.01 ± 0.035 |
| GGATCAATGT | 0.998 ± 0.02 |
| GGATCATTCG | 1.02 ± 0.048 |
| GGATCATTTA | 1.03 ± 0.042 |
| GGATCCAGTA | 1.02 ± 0.045 |
| GGATCCATAC | 1.01 ± 0.014 |
| GGATCCGGGA | 1.0104 ± 2.5e-05 |
| GGATCCTGTT | 1.01 ± 0.027 |
| GGATCGCGAG | 0.9797 ± 0.0074 |
| GGATCTTGGG | 1.0038 ± 0.00073 |
| GGATGAATGG | 1.03 ± 0.043 |
| GGATGAGGGT | 0.986 ± 0.018 |
| GGATGCAAGT | 0.998 ± 0.039 |
| GGATGCAGC | 0.992 ± 0.024 |
| GGATGCAGGG | 0.999 ± 0.012 |
| GGATGCGTG | 0.985 ± 0.059 |
| GGATGGATGA | 1.07 ± 0.073 |
| GGATGGCATG | 0.979 ± 0.039 |

| Sequence | switch fluorescence ratio |
| --- | --- |
| GGATGGCGGA | 0.997 ± 0.024 |
| GGATGGGTTG | 1.09 ± 0.19 |
| GGATGGTGCT | 0.948 ± 0.027 |
| GGATGGTTCA | 1.05 ± 0.072 |
| GGATGGTTTC | 1.01 ± 0.023 |
| GGATGTAGCG | 0.985 ± 0.051 |
| GGATGTCAGG | 1 ± 0.045 |
| GGATGTGAAG | 0.9818 ± 0.0027 |
| GGATGTTATG | 1.016 ± 0.0078 |
| GGATTAAGCT | 1.015 ± 0.0043 |
| GGATTAGCTG | 1.01 ± 0.049 |
| GGATTAGG | 0.99 ± 0.025 |
| GGATTAGGTT | 1.01 ± 0.011 |
| GGATTATCTC | 1.015 ± 0.0044 |
| GGATTATTAG | 0.965 ± 0.016 |
| GGATTCAGCA | 1.01 ± 0.022 |
| GGATTCATTT | 1.054 ± 0.0087 |
| GGATTCTTAG | 0.986 ± 0.049 |
| GGATTGAATC | 1 ± 0.015 |
| GGATTGAGGG | 0.968 ± 0.021 |
| GGATTGCAAG | 0.998 ± 0.013 |
| GGATTGCTCG | 1.03 ± 0.029 |
| GGATTGGATT | 1 ± 0.022 |
